Experimental data as given in article PMC2891831, “Insight into the Mechanisms of Adenovirus Capsid Disassembly from Studies of Defensin Neutralization” (PLoS Pathogens, 2010).
Entries after “also recorded” stand apart in the source; their conditions may differ. Like-named read-outs stand apart in the source and are kept apart here.

What was measured:
HAdV-5 capsid = assay: Virus-defensin equilibrium-binding assay, HAdV-5; parameters: species or system human adenovirus
Procedure: Neutralization of HAdV by α-defensins is dependent upon binding to the virus capsid, which can be disrupted in the presence of elevated concentrations of sodium chloride. To perform a more quantitative assessment of this interaction, increasing concentrations of HD5 were incubated with Ad5.eGFP to allow binding, and the virus/HD5 complex was then separated from unbound HD5 on a nycodenz gradient. Bound defensin was visualized after SDS-PAGE using a sensitive fluorescent total protein stain and quantified against a standard curve.
(§1) Figure 2 HD5 binding to HAdV. A) HD5 binding to a representative defensin-sensitive serotype (HAdV-5) was quantified by an equilibrium-binding assay. Data are the mean of the number of HD5 molecules bound per virion at the indicated HD5 concentrations from at least three independent experiments ± SD. Binding curves were fitted using Prism software. B) Binding of HD5 to additional defensin-sensitive (HAdV-7p) and resistant (HAdV-19c, -25p, -51p) serotypes expressed as a percent of HD5 bound to HAdV-5. Data are the mean of two or three independent experiments ± SD.
To measure HD5 binding to HAdV-5 and -51, HD5 was serially diluted in PBS and mixed with 5 µg purified virus. After 1 h incubation on ice, one half of each sample was separated by ultracentrifugation [209,000×g (avg.) for 2 hrs at 4°C] on a discontinuous gradient consisting of 300 µl of 30% nycodenz and 200 µl of 80% nycodenz in 50 mM NaCl, 20 mM HEPES pH 7.4 using an SW55ti rotor with adaptors (Beckman Coulter, Inc.). The visible virus band was collected. The other half of each sample was used to make a standard curve for quantification. All samples were boiled in reducing loading buffer and separated using a 16% PAGEgel (Expedeon, Inc., San Diego, CA) or 10–20% Tris-Tricine gel (Bio-Rad, Hercules, CA). The gels were stained with Deep Purple (GE Healthcare) and imaged on a Typhoon Trio. Virus bands were quantified using ImageQuant NT software (GE Healthcare). The amount of HD5 in each sample was normalized to protein V and hexon. The amount of HD5 in the centrifuged samples was then quantified against the standard curve using Prism software. Affinity and stoichiometry were estimated from the average data of at least three independent experiments using Prism software.

HAdV-19c = assay: Virus-defensin binding assay, HAdV-19c; parameters: species or system human adenovirus
Excerpt: as §1
We assessed HD5 binding to additional serotypes after incubation with 20 µM HD5 (Figure 2B). The sensitive serotype HAdV-7p bound 69.3±15.9% of the amount of HD5 bound to HAdV-5 in parallel samples; whereas, the corresponding values for the resistant serotypes HAdV-19c, -25p, and -51p were 32.5±7.5%, 3.3±5.8%, and 24.6±12.0%, respectively.
To measure HD5 binding to HAdV-5 and -51, HD5 was serially diluted in PBS and mixed with 5 µg purified virus. […] The other half of each sample was used to make a standard curve for quantification. […] Virus bands were quantified using ImageQuant NT software (GE Healthcare). […] The amount of HD5 in the centrifuged samples was then quantified against the standard curve using Prism software. […]

[1] = tested on: binding of HAdV-5 to A549 cells (CAR receptor); assay: Fiber knob competition assay: binding of labeled HAdV-5 to cells; type: cell-based, human
Procedure: Figure 3 HD5 antiviral activity is structure dependent. A) Ribbon representation of HD5 (PDB 1ZMP). Three disulfide bonds are numbered, and the two residues comprising the conserved salt bridge (R6 and E14) are indicated. B) Ad5.eGFP was incubated with 15 µM of each of the indicated defensins. HD5-Abu is HD5 with the six cysteines replaced with L-α-aminobutyric acid. Data are the mean percent of eGFP positive cells compared to control cells infected in the absence of defensin for at least three independent experiments ± SD. C) Binding of Alexa Fluor 488-labeled HAdV-5 to cells was assessed after incubation with or without 20 µM HD5 or HD5-Abu and in competition with 100 nM 5FK or 16 FK. Data are the mean fold increase in geometric mean fluorescence compared to cells alone and are of at least 10,000 cells from each of three independent experiments ± SD.
In order to determine the receptor-dependence of this effect, we pre-incubated cells with recombinant fiber knob from HAdV-5 (5FK) to block receptor (CAR) interactions and measured cell binding of fluorescently labeled HAdV-5 that was pre-incubated with or without HD5 or HD5-Abu (Figure 3C). Cells incubated with fiber knob from HAdV-16 (16FK), which binds CD46, served as a control. We observed that virus binding to cells was reduced 5.2-fold in the presence of 5FK compared to 16FK. […]

[2] = tested on: HAdV-5/HAdV-19c chimeric viruses; assay: FACS-based infection assay of virus chimeras at 100-fold lower moi; type: cell-based, human adenovirus; settings: data not shown
Excerpt: We then combined the GYAR substitution with the PB substitution in a single construct (PB/GYAR).

B1: HD5: human alpha-defensin; synthetic, obtained from Peptides International; three disulfide bonds (PDB 1ZMP) (peptide, UniProt Q01523 20-94, looked up)
Defensin alpha 5: ESLQERADEATTQKQSGEDNQDLAISFAGNGLSALRTSGSQARATCYCRTGRCATRESLSGVCEISGRLYRLCCR
modifications: Defensin-5
95% confidence interval of HD5 molecules bound per virus particle at saturation (HAdV-5 capsid; 95% confidence interval): 1603–3919 HD5 molecules | Kd (HAdV-5 capsid; 95% confidence interval, read-out: 95% confidence interval of KD): 2.8 to 26.2 µM | level of HD5 binding (in words) (HAdV-5 capsid; HAdV-5): specific binding | Kd (HAdV-5 capsid; equilibrium binding, Ad5.eGFP, 1 h on ice in PBS, nycodenz gradient, at least three independent experiments, read-out: KD): ~14.5 µM | HD5 bound, percent of HD5 bound to HAdV-5 (HAdV-19c; 20 µM HD5, mean of two or three independent experiments ± SD): 32.5±7.5% | level of HD5 binding (in words) (HAdV-19c; HAdV-19c): only a low level of binding | interaction with CAR receptor in presence of HD5 ([1]; 20 µM HD5, competition with 5FK): does not completely block the interaction with CAR receptor; also recorded: capacity of fiber to bind to CAR was not compromised by HD5 binding | effect on virus binding to cells ([1]; virus pre-incubated with 20 µM HD5 or HD5-Abu, Alexa Fluor 488, fold increase in geometric mean fluorescence, three independent experiments): increased virus binding to cells; also recorded: enhanced by HD5 | sensitivity phenotype of chimeras in FACS-based assay [2]: Equivalent results
